Experiment [1] addresses T1, dephosphorylated (non-phosphorylated) osteopontin (recombinant human OPN expressed in E. coli) (human, UniProt P10451 17-314).
T1 construct: osteopontin (OPN), human, recombinant, expressed in E. coli, non-phosphorylated; Commercial protein; Called 'dephosphorylated' but it is simply made in E. coli (non-phosphorylated), not treated with a phosphatase; also called dOPN; SPP1; source: bought: Abcam (expressed in E. coli; purity >= 90% according to the manufacturer)
Briefly: SPR; hBD3, SLPI and LL37 immobilised in different flow cells (50 ug/mL in 10 mM sodium acetate pH 5.5); dOPN or pOPN flowed at 10 uL/min; BIAcore X100, 25°C, HBS-EP (10 mM HEPES, 150 mM NaCl, 3 mM EDTA, 0.05% surfactant P20, pH 7.4); Langmuir model. The conditions noted are these: both partners purified.

Experiment [2] deals with T2, phosphorylated osteopontin (recombinant human OPN derived from HEK293 cells) (human, UniProt P10451 17-314, phosphorylated (sites not given; phosphorylation pattern in Supplementary Figure 2)).
T2 construct: osteopontin (OPN), human, recombinant, expressed in HEK293 cells; Commercial protein; From a eukaryotic host, so it probably differs from dOPN in glycosylation as well as in phosphorylation; also called pOPN; SPP1; source: bought: Peprotech (expressed in HEK293 cells; purity >= 97% according to the manufacturer)
T2 sequence (P10451 17-314): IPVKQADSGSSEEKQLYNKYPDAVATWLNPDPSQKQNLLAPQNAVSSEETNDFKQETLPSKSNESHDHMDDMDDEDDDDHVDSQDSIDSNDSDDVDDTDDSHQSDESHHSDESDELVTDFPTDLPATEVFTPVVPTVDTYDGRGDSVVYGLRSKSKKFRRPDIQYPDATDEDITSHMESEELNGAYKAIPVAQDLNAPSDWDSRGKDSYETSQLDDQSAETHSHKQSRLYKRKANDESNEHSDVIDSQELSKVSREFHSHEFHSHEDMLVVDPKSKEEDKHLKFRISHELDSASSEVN
The description is as above. The conditions noted are these: both partners purified.

Ends that are not written are not given here.

T1 sequence (P10451 17-314): as above

B1: human β-defensin-3 (peptide, UniProt P81534 23-67, looked up)
chain: GIINTLQKYYCRVRGGRCAVLSCLPKEEQIGKCSTRGRKCCRRKK
modifications: ends and bridges not checked; cysteine pairing not given here
notes: human beta-defensin 3 (hBD-3), antimicrobial peptide; also called hBD3; hBD-3; source: bought: Abcam
Consider B1, for which the Kd was 83.8 nM in experiment [1] and 6.5 nM in experiment [2].

B2: secretory leukocyte protease inhibitor (natural protein, UniProt P03973 26-132, looked up)
chain: SGKSFKAGVCPPKKSAQCLRYKKPECQSDWQCPGKKRCCPDTCGIKCLDPVDTPNPTRRKPGKCPVTYGQCLMLNPPNFCEMDGQCKRDLKCCMGMCGKSCVSPVKA
notes: Commercial protein; also called SLPI; source: bought: Abcam
As for B2, the Kd was 4650 nM in experiment [1] and 6.25 nM in experiment [2].

The values are drawn from article PMC9779928, “Tartrate resistant acid phosphatase 5 (TRAP5) mediates immune cell recruitment in a murine model of pulmonary bacterial infection” (Frontiers in Immunology, 2022).
